Like-named read-outs stand apart in the source and are kept apart here.
B1: FAM-Aptamer (ssDNA)
DNA: CAGCACCGACCTTGTGCTTTGGGAGTGCTGGTCCAAGGGCGTTAATGGACA
B2: Aptamer (ssDNA)
DNA: B1 DNA

Experiments:
[1] = biological target: T1, SARS-CoV-2 Spike RBD (SARS-CoV-2, UniProt P0DTC2 319-541); conditions: protein: commercial; tags: C-terminal 6xHis; label: 5'-FAM
[2] = biological target: T1, SARS-CoV-2 Spike RBD

Binder | binding result [1] | binding result [2]
B1 | binds | 
B2 |  | binds
